From PMC9864010 come the findings set out here.

Test [1] concerns the target AP205 cVLP displaying SpyTag (SpyT-cVLP) (Acinetobacter phage AP205). The test can be described thus: covalent SpyTag/SpyCatcher coupling shown by reduced SDS-PAGE with densitometry; SpyT-cVLP and SpyC-PCSK9 antigen mixed in a 1:2 molar ratio in PBS, pH 7.4, overnight at 4 °C; coupling band on reduced SDS-PAGE; coupling efficiency = coupled cVLP subunits/(coupled + uncoupled cVLP subunits) by densitometry.

Test [2] deals with AP205 cVLP displaying SpyCatcher (SpyC-cVLP) (Acinetobacter phage AP205). The test can be described thus: covalent SpyTag/SpyCatcher coupling shown by reduced SDS-PAGE with densitometry; FL PCSK9-SpyT in 100 mM HEPES, 500 mM NaCl, pH 7 mixed 1:1.2 (cVLP subunit per antigen) with SpyC-cVLP, HEPES to 250 mM and L-Arginine to 500 mM, overnight at 4 °C; coupling band on reduced SDS-PAGE; coupling efficiency by densitometry.

Regarding “SpyC-PCSK9(210–226) (from UniProt Q80W65 210-226)”, in test [1], the antigen coupling efficiency (percentage of binding sites per cVLP conjugated to an antigen) was 80%. The substance “FL PCSK9-SpyT (muPCSK9(35–694) R221S-SpyT)” showed an antigen coupling efficiency (percentage of binding sites per cVLP conjugated to an antigen) in test [2] of 40%. Take “SpyC-PCSK9(156–227) (from UniProt Q80W65 156-227)”: in test [1], the antigen coupling efficiency (percentage of binding sites per cVLP conjugated to an antigen) is 60%.
